Measurements reported in article doi:10.1101/859132 (bioRxiv, 2019).

What was measured:
Experiment in all cases: pull-down
[1] = target: T1, Maf1-id (Maf1 Δ64-194) (S. cerevisiae, UniProt P41910 1-395, Δ64-194)
T1 sequence (looked up): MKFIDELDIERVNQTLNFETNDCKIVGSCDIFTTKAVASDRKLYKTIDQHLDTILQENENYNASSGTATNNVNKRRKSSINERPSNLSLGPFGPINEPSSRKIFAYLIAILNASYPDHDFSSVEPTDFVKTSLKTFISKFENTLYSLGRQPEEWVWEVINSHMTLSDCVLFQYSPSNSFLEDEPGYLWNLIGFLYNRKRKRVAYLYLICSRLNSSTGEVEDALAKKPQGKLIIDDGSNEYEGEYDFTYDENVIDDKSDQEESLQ

[2] = target: T2, Maf1-id T33E/T34E (S. cerevisiae, UniProt P41910 1-395, Δ64-194 | T33E | T34E)
T2 sequence (looked up): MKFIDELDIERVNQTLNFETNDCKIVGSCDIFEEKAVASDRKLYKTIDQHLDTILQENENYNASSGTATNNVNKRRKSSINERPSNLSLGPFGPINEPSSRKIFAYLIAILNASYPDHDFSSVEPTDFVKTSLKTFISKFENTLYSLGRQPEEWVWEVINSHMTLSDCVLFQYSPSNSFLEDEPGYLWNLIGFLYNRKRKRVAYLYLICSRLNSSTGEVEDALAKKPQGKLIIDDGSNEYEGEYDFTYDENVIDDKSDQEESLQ

[3] = target: T3, Maf1-id L318S/W319S (S. cerevisiae, UniProt P41910 1-395, Δ64-194 | L318S | W319S)
T3 sequence (looked up): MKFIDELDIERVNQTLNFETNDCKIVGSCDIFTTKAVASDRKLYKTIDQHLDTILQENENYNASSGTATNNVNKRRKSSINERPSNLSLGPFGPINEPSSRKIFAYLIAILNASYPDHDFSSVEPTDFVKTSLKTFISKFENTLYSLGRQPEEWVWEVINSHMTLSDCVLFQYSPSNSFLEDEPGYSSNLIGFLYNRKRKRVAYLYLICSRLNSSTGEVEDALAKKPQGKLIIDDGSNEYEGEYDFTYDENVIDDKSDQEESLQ

[4] = target: T4, Maf1-id D248A/D250A (S. cerevisiae, UniProt P41910 1-395, Δ64-194 | D248A | D250A)
T4 sequence (looked up): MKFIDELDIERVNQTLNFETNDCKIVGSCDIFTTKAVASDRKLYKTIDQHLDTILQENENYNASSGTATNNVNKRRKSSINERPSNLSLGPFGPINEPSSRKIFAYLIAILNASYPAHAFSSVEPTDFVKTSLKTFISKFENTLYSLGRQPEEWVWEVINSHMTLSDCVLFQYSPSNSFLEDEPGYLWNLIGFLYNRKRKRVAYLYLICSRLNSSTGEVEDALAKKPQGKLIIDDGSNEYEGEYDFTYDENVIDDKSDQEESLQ

Measured: binding result

B1: C34 1-156 (the two N-terminal C34 WH domains), His-tagged (domain or fragment, S. cerevisiae, UniProt P32910 1-156, looked up)
chain: MSGMIENGLQLSDNAKTLHSQMMSKGIGALFTQQELQKQMGIGSLTDLMSIVQELLDKNLIKLVKQNDELKFQGVLESEAQKKATMSAEEALVYSYIEASGREGIWSKTIKARTNLHQHVVLKCLKSLESQRYVKSVKSVKFPTRKIYMLYSLQPS
binds: all assays above
